The supplement of paper PMC7877785
± gives the uncertainty stated by the source.

Experiment: self-splicing fitness, log relative to wild type (ln ratio); higher = more splicing; Tetrahymena group I intron in knt gene, E. coli kanamycin selection, DiMSum; sequences stand for … in CUCUCU…GGAGGGAAAAGUUAUCAGGCAUGCACCUGGUAGCUAGUCUUUAAACCAAUAGAUUGCAUCGGUUUAAAAGGCAAGACCGUCAAAUUGCGGGAAAGGGGUCAACAGCCGUUCAGUACCAAGUCUCAGGGGAAACUUUGAGAUGGCCUUGCAAAGGGUAUGGUAAUAAGCUGACGGACAUGGUCCUAACCACGCAGCCAAGUCCUAAGUCAACAGAUCUUCUGUUGAUAUGGAUGCAGUUCACAGACUAAAUGUCGGUCGGGGAAGAUGUAUUCUUCUCAUAAGAUAUAGUCGGACCUCUCCUUAAUGGGAGCUAGCGGAUGAAGUGAUGCAACACUGGAGCCGCUGGGAACUAAUUUGUAUGCGAAAGUAUAUUGAUUAGUUUUGGAGUACUCGUGGUCG
Procedure, shortened: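 Colonies from six replicate transformations of E. coli BL21(DE3) were pooled and amplicon-sequenced on an Illumina HiSeq 2500. The library placed an intron with all eight P1ex-region nucleotides randomised inside the knt kanamycin-resistance gene on pET-22b(+), and cells grew overnight at 37°C or 30°C on LB agar with or without 25 μg/mL kanamycin (plus 100 μg/mL carbenicillin, 50 μM IPTG, 0.2% rhamnose). Fitness is the DiMSum error-weighted combination of wild-type-normalised replicate fold changes, kanamycin versus none.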

| Sequence | self-splicing fitness (ln) (30 °C) | self-splicing fitness (ln) (37 °C) |
| --- | --- | --- |
| AAGCAGCAAUAUUACGGUGG | -3.64 ± 0.18 | -1.98 ± 0.17 |
| AAGAAGCAAUAUUACGUCAG | -2.66 ± 0.2 | -1.91 ± 0.16 |
| CUCGAGCAAUAUUACGUACC | -2.32 ± 0.26 | -0.911 ± 0.39 |
| AGGAAGCAAUAUUACGGGGG | – | -1.89 ± 0.36 |
| AAACAGCAAUAUUACGGUGU | -2.42 ± 0.06 | -1.4 ± 0.071 |
| GGUAAGCAAUAUUACGGAGC | -2.99 ± 0.2 | -1.98 ± 0.22 |
| CCACAGCAAUAUUACGGGUC | -3.86 ± 0.18 | -2.89 ± 0.17 |
| AUUAAGCAAUAUUACGAAGU | -2.77 ± 0.22 | -0.565 ± 0.21 |
| UUGCAGCAAUAUUACGGCGC | -1.8 ± 0.24 | -1.84 ± 0.31 |
| CGACAGCAAUAUUACGCCUG | -0.901 ± 0.066 | -0.0701 ± 0.069 |
| AAGAAGCAAUAUUACGCUUU | -4.1 ± 0.42 | -2.58 ± 0.21 |
| ACACAGCAAUAUUACGAAAC | -3.02 ± 0.23 | -1.82 ± 0.22 |
| GCCGAGCAAUAUUACGUAAG | -2.26 ± 0.13 | -1.09 ± 0.12 |
| UGUAAGCAAUAUUACGUGCU | -1.48 ± 0.13 | -0.148 ± 0.16 |
| CGUGAGCAAUAUUACGAAUG | -1.41 ± 0.16 | -0.913 ± 0.13 |
| GGACAGCAAUAUUACGCUGU | -2.73 ± 0.21 | -2.96 ± 0.31 |
| GUCUAGCAAUAUUACGCAUC | -0.727 ± 0.13 | 0.171 ± 0.14 |
| AGUAAGCAAUAUUACGGUGC | -4.4 ± 0.46 | -1.37 ± 0.17 |
| AUUCAGCAAUAUUACGCGAU | -3.46 ± 0.18 | -3.23 ± 0.26 |
| UGGAAGCAAUAUUACGGCGC | -1.23 ± 0.22 | -0.241 ± 0.22 |
| GAAUAGCAAUAUUACGAAGC | -3.17 ± 0.24 | -2.54 ± 0.22 |
| AUCGAGCAAUAUUACGUGUG | -3.04 ± 0.13 | -2.92 ± 0.18 |
| GUGAAGCAAUAUUACGAACG | -1.57 ± 0.4 | – |
| UGUUAGCAAUAUUACGGCGG | -0.72 ± 0.09 | -0.356 ± 0.1 |
| UGGAAGCAAUAUUACGUCCU | -0.91 ± 0.2 | -0.584 ± 0.21 |

| Sequence | self-splicing fitness (ln) (30 °C) | self-splicing fitness (ln) (37 °C) |
| --- | --- | --- |
| GUCGAGCAAUAUUACGCAAU | -1.08 ± 0.1 | -0.467 ± 0.14 |
| AUGAAGCAAUAUUACGCUGU | -2.02 ± 0.12 | -0.999 ± 0.13 |
| CCUUAGCAAUAUUACGCCGG | -3.82 ± 0.28 | -2.73 ± 0.26 |
| AUAUAGCAAUAUUACGAAAU | -1.01 ± 0.21 | -1.72 ± 0.28 |
| CCGCAGCAAUAUUACGUCAG | -0.624 ± 0.054 | 0.0667 ± 0.065 |
| AUGCAGCAAUAUUACGUAAG | -0.932 ± 0.062 | -0.743 ± 0.077 |
| GGCUAGCAAUAUUACGAAAA | -1.06 ± 0.24 | -1.33 ± 0.27 |
| CAGUAGCAAUAUUACGGAUU | -2.84 ± 0.17 | -3.21 ± 0.27 |
| AGUUAGCAAUAUUACGUACA | -1.06 ± 0.09 | -0.266 ± 0.12 |
| ACCAAGCAAUAUUACGUAUU | -3.77 ± 0.14 | -2.07 ± 0.12 |
| GCACAGCAAUAUUACGCCCA | -1.72 ± 0.27 | -0.754 ± 0.24 |
| UAAAAGCAAUAUUACGGCCG | 0.132 ± 0.12 | 0.444 ± 0.17 |
| UAACAGCAAUAUUACGCUCC | -2.62 ± 0.32 | -1.22 ± 0.3 |
| UCAGAGCAAUAUUACGCUUG | -2.27 ± 0.14 | -0.868 ± 0.12 |
| CGACAGCAAUAUUACGUGCG | -4.12 ± 0.17 | -2.5 ± 0.19 |
| GGUAAGCAAUAUUACGACUA | 0.407 ± 0.12 | -0.574 ± 0.12 |
| AUCGAGCAAUAUUACGUUUC | – | -2.81 ± 0.31 |
| ACAUAGCAAUAUUACGCUCU | -0.768 ± 0.084 | -0.2 ± 0.12 |
| CUGAAGCAAUAUUACGAUAC | -2.44 ± 0.32 | -1.94 ± 0.36 |
| GCGUAGCAAUAUUACGGAGU | -2.88 ± 0.16 | -1.44 ± 0.14 |
| AGGGAGCAAUAUUACGGACC | -2.79 ± 0.36 | -1.37 ± 0.36 |
| GUUUAGCAAUAUUACGGACC | -2.41 ± 0.35 | – |
| GCCCAGCAAUAUUACGCUGU | -0.516 ± 0.063 | -0.482 ± 0.092 |
| AAAUAGCAAUAUUACGGUGC | -4.05 ± 0.43 | -1.81 ± 0.31 |
